The source of these data is publication PMC8217500.

For assay [1], the target named is Fc-tagged SARS-CoV-2 receptor-binding domain (RBD), wild type (SARS-CoV-2) (UniProt P0DTC2). As to the kind of experiment: BLI; Fc-tagged RBD (20 ug/ml) loaded on anti-hIgG Fc Capture (AHC) biosensors, Fab in solution at four to five concentrations; Octet Red96e, room temperature, 1x kinetics buffer (1x PBS pH 7.4, 0.01% w/v BSA, 0.002% v/v Tween 20); 1:1 binding model.

The target of assay [2] is Fc-tagged SARS-CoV-2 spike receptor-binding domain (RBD) (SARS-CoV-2) (UniProt P0DTC2). As to the kind of experiment: BLI; Fc-tagged RBD (20 ug/ml) loaded on anti-hIgG Fc Capture (AHC) biosensors, Fab in solution; room temperature; 1x PBS pH 7.4, 0.01% BSA, 0.002% Tween 20; 1:1 binding model. A general note: Biolayer interferometry detects binding as a change in optical thickness at a sensor tip.

On to COVD21-C8 F58Y Fab, for which the Kd (in general, the concentration at which binding is half-saturated) in assay [1] was more than 1 µM.
In turn, “COVD21-C8 Fab, Y58 variant (heavy chain F58Y)” yielded a Kd in assay [2] of 2 µM.
